# From patent US20220010021A1 (Sanofi, published 2022)
# Substitutions are numbered along the chain they refer to. In names and notes the source's numbering stands.
# T1: human beta-Klotho (KLB) (human, UniProt Q86Z14 53-997)
# T1 construct: Bought soluble protein; also called human KLB; ß-Klotho
# T1 sequence (looked up): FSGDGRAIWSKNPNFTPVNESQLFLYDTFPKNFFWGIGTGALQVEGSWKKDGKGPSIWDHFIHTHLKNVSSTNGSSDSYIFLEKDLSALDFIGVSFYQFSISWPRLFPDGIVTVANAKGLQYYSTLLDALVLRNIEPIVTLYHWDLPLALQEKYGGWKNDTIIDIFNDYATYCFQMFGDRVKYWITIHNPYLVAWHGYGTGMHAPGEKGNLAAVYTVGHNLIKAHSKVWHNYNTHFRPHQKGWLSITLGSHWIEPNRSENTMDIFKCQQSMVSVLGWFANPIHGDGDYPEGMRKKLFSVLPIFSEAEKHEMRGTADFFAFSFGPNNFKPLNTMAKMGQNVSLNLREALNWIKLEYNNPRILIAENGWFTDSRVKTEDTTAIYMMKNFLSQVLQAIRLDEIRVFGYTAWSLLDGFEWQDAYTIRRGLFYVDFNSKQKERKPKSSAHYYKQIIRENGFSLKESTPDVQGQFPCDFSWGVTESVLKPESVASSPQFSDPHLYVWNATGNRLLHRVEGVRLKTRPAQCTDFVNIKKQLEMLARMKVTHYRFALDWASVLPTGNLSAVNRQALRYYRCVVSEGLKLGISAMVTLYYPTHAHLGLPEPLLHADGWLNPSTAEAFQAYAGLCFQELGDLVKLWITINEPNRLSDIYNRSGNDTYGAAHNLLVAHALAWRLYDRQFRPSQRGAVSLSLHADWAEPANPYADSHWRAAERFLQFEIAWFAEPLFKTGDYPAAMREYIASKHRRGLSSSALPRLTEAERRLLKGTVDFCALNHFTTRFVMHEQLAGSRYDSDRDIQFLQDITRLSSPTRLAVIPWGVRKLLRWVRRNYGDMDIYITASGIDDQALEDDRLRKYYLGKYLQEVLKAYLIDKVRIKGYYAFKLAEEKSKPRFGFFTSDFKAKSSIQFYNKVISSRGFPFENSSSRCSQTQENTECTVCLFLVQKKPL
# B1: 16H7 light chain variant G28F (antibody, human IgG4 S228P, lambda, V domains shown)
# VH: not shown
# VL: SYVLTQPPSVSVAPGQTARITCGGNNIFSESVHWYQQKPGQAPVLVVYDDSDRPSGIPERFSGSNSGNTATLTISRVEAGDEADYYCQVWDGNSDHVVFGGGTKLTVLG
# B2: 16H7 light chain variant G28W (antibody, human IgG4 S228P, lambda, V domains shown)
# VH: not shown
# VL: B1 VL with F28W
# B3: 16H7 light chain variant G28H (antibody, human IgG4 S228P, lambda, V domains shown)
# VH: not shown
# VL: B1 VL with F28H
# B4: 16H7 light chain variant S29A (antibody, V domains shown)
# VH: not shown
# VL: B1 VL with F28G, S29A
# notes: copies: 2 + 2
# B5: 16H7 light chain variant G28K (antibody, human IgG4 S228P, lambda, V domains shown)
# VH: not shown
# VL: B1 VL with F28K
# B6: 16H7 light chain variant G28P (antibody, human IgG4 S228P, lambda, V domains shown)
# VH: not shown
# VL: B1 VL with F28P
# B7: 16H7 light chain variant S29G (antibody, V domains shown)
# VH: not shown
# VL: B1 VL with F28G, S29G
# notes: copies: 2 + 2
# B8: 16H7 light chain variant I27M (antibody, human IgG4 S228P, lambda, V domains shown)
# VH: not shown
# VL: B1 VL with I27M, F28G
# B9: 16H7 light chain variant I27Q (antibody, human IgG4 S228P, lambda, V domains shown)
# VH: not shown
# VL: B1 VL with I27Q, F28G
# B10: 16H7 light chain variant G28L (antibody, human IgG4 S228P, lambda, V domains shown)
# VH: not shown
# VL: B1 VL with F28L
# B11: 16H7 light chain variant G28I (antibody, human IgG4 S228P, lambda, V domains shown)
# VH: not shown
# VL: B1 VL with F28I
# B12: 16H7 light chain variant I27P (antibody, human IgG4 S228P, lambda, V domains shown)
# VH: not shown
# VL: B1 VL with I27P, F28G
# B13: 16H7 light chain variant I27F (antibody, V domains shown)
# VH: not shown
# VL: B1 VL with I27F, F28G
# notes: copies: 2 + 2
# B14: 16H7 light chain variant S29F (antibody, V domains shown)
# VH: not shown
# VL: B1 VL with F28G, S29F
# notes: copies: 2 + 2
# B15: 16H7 light chain variant G28N (antibody, human IgG4 S228P, lambda, V domains shown)
# VH: not shown
# VL: B1 VL with F28N
# B16: 16H7 light chain variant S29I (antibody, human IgG4 S228P, lambda, V domains shown)
# VH: not shown
# VL: B1 VL with F28G, S29I
# B17: 16H7 light chain variant I27N (antibody, V domains shown)
# VH: not shown
# VL: B1 VL with I27N, F28G
# notes: copies: 2 + 2
# B18: 16H7 light chain variant S29D (antibody, human IgG4 S228P, lambda, V domains shown)
# VH: not shown
# VL: B1 VL with F28G, S29D
# B19: 16H7 light chain variant S29H (antibody, V domains shown)
# VH: not shown
# VL: B1 VL with F28G, S29H
# notes: copies: 2 + 2
# B20: 16H7 light chain variant S29E (antibody, human IgG4 S228P, lambda, V domains shown)
# VH: not shown
# VL: B1 VL with F28G, S29E
# B21: 16H7 light chain variant G28Y (antibody, human IgG4 S228P, lambda, V domains shown)
# VH: not shown
# VL: B1 VL with F28Y
# B22: 16H7 light chain variant I27Y (antibody, human IgG4 S228P, lambda, V domains shown)
# VH: not shown
# VL: B1 VL with I27Y, F28G
# B23: 16H7 light chain variant S29L (antibody, V domains shown)
# VH: not shown
# VL: B1 VL with F28G, S29L
# notes: copies: 2 + 2
# B24: 16H7 light chain variant G28R (antibody, human IgG4 S228P, lambda, V domains shown)
# VH: not shown
# VL: B1 VL with F28R
# B25: 16H7 light chain variant I27C (antibody, human IgG4 S228P, lambda, V domains shown)
# VH: not shown
# VL: B1 VL with I27C, F28G
# B26: 16H7 light chain variant S29K (antibody, human IgG4 S228P, lambda, V domains shown)
# VH: not shown
# VL: B1 VL with F28G, S29K
# B27: 16H7 light chain variant G28T (antibody, human IgG4 S228P, lambda, V domains shown)
# VH: not shown
# VL: B1 VL with F28T
# B28: 16H7 light chain variant I27H (antibody, V domains shown)
# VH: not shown
# VL: B1 VL with I27H, F28G
# notes: copies: 2 + 2
# B29: 16H7 light chain variant I27V (antibody, V domains shown)
# VH: not shown
# VL: B1 VL with I27V, F28G
# notes: copies: 2 + 2
# B30: 16H7 light chain variant S29C (antibody, V domains shown)
# VH: not shown
# VL: B1 VL with F28G, S29C
# notes: copies: 2 + 2
# B31: 16H7 light chain variant I27T (antibody, V domains shown)
# VH: not shown
# VL: B1 VL with I27T, F28G
# notes: copies: 2 + 2
# B32: 16H7 light chain variant I27R (antibody, V domains shown)
# VH: not shown
# VL: B1 VL with I27R, F28G
# notes: copies: 2 + 2
# B33: 16H7 light chain variant I27A (antibody, human IgG4 S228P, lambda, V domains shown)
# VH: not shown
# VL: B1 VL with I27A, F28G
# B34: 16H7 light chain variant G28S (antibody, human IgG4 S228P, lambda, V domains shown)
# VH: not shown
# VL: B1 VL with F28S
# B35: 16H7 light chain variant I27W (antibody, human IgG4 S228P, lambda, V domains shown)
# VH: not shown
# VL: B1 VL with I27W, F28G
# Key:
# human beta-Klotho (KLB) = biological target: T1, human beta-Klotho (KLB); assay: BLI off-rate screen, supernatant;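 note: expression supernatants tested at 25 µg/mL, dissociation followed for 1800 s in D-PBS with 0.1% BSA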
# [1] = biological target: cell surface receptor composed of FGFR1c and co-receptor beta-Klotho (KLB) (human, UniProt P11362 22-822; Q86Z14 1-1044); assay: cell-based or functional assay; for Mean E max, Luciferase reporter gene assay: reference of the scale not given here
# Sequence of cell surface receptor composed of FGFR1c and co-receptor beta-Klotho (KLB) (P11362 22-822, chain 1 of 2): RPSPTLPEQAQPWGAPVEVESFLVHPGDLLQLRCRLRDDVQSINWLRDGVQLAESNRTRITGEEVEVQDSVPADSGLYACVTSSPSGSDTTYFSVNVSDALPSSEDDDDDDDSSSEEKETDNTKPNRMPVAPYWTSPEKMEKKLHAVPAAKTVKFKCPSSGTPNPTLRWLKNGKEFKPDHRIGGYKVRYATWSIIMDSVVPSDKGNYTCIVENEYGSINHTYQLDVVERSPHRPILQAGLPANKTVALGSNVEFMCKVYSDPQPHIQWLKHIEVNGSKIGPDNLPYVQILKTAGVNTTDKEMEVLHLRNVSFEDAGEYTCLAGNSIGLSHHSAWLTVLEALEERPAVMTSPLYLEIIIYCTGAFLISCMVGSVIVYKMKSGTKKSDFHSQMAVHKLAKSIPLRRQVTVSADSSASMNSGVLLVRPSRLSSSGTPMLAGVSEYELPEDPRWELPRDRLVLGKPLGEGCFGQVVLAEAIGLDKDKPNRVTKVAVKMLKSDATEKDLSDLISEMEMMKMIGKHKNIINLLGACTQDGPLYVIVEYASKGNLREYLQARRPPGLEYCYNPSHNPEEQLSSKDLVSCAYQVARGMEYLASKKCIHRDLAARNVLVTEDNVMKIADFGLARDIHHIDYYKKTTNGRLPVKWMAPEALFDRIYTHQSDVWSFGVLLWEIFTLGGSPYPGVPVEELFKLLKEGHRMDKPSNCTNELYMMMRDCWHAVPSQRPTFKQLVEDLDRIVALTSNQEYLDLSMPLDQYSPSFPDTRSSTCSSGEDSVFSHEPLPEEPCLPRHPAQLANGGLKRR
# Sequence of cell surface receptor composed of FGFR1c and co-receptor beta-Klotho (KLB) (Q86Z14 whole entry, chain 2 of 2): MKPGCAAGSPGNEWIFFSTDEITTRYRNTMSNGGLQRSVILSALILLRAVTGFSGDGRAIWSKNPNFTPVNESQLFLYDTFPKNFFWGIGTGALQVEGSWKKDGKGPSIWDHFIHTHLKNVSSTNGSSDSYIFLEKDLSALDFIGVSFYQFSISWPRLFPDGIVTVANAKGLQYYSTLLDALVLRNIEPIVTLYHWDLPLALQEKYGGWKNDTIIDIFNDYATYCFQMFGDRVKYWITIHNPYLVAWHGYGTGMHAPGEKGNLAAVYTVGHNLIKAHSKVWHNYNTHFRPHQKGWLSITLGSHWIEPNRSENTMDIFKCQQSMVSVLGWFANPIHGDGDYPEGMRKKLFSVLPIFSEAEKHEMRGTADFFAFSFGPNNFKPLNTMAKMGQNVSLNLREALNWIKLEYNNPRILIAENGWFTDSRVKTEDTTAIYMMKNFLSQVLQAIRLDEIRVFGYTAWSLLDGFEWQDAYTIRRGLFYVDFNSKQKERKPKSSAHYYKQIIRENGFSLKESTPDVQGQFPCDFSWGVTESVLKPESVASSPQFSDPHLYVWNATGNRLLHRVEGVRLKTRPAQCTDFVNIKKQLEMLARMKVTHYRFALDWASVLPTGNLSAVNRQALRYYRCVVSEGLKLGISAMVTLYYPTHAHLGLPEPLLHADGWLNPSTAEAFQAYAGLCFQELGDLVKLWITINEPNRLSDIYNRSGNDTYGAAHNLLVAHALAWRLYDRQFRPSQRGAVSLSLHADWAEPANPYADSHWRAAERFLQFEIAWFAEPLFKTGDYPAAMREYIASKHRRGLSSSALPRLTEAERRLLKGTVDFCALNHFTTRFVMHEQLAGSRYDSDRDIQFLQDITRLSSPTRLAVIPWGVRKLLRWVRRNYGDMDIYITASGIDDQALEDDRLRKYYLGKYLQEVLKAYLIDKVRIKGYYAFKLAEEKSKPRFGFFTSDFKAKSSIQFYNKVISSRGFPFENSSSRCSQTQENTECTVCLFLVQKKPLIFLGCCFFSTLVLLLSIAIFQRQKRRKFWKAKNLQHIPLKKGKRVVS
Binder,koff (human beta-Klotho (KLB)) [s⁻¹],"Mean E max, Luciferase reporter gene assay [1] [%]","Mean EC50, Luciferase reporter gene assay [1] [nM]"
B1,3.9e-05,102,0.124
B2,3.7e-05,96,0.142
B3,1.8e-05,108,0.165
B4,1e-05,100,0.153
B5,3.3e-05,108,0.149
B6,6.2e-05,103,0.132
B7,3.5e-05,98,0.09
B8,6e-05,97,0.087
B9,6.1e-05,103,0.144
B10,6.1e-06,104,0.137
B11,3.3e-05,112,0.132
B12,3.5e-06,107,0.145
B13,2e-05,104,0.118
B14,1.9e-05,116,0.19
B15,1.8e-05,113,0.111
B16,3e-05,107,0.14
B17,4.5e-05,96,0.162
B18,4.5e-05,109,0.136

Binder,koff (human beta-Klotho (KLB)) [s⁻¹],"Mean E max, Luciferase reporter gene assay [1] [%]","Mean EC50, Luciferase reporter gene assay [1] [nM]"
B19,4.9e-05,100,0.119
B20,2.3e-05,114,0.102
B21,5.3e-05,109,0.131
B22,4.2e-05,96,0.116
B23,1.1e-05,100,0.108
B24,8.5e-05,102,0.138
B25,3.8e-05,106,0.16
B26,1.5e-05,96,0.146
B27,1.5e-06,110,0.187
B28,3.3e-05,100,0.098
B29,3.3e-05,104,0.136
B30,5e-05,108,0.172
B31,3.3e-05,97,0.152
B32,2.2e-05,105,0.131
B33,5.3e-05,107,0.111
B34,2.3e-06,109,0.14
B35,6.5e-05,104,0.156
